Measurements published in patent US20170305994A1.

Target: T1, human DR3 (full length, on cells) (human) (UniProt Q93038)
T1 sequence: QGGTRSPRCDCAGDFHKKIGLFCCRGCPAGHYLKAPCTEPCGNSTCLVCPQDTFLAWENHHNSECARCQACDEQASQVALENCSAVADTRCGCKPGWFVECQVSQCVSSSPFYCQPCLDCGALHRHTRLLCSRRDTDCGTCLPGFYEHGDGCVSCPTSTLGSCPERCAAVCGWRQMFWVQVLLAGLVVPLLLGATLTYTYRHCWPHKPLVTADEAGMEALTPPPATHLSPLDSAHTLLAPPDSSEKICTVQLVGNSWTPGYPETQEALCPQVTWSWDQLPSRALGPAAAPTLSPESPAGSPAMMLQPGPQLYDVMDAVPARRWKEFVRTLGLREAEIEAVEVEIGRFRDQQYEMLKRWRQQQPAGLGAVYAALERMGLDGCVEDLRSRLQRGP
Assay: cell-based or functional assay

fold response, DR3 reporter, 40 ng/ml TL1A alone: 32.8 fold
B1: TL1A (R&D Systems) (ligand, UniProt O95150 72-251, looked up)
chain: LKGQEFAPSHQQVYAPLRADGDKPRAHLTVVRQTPTQHFKNQFPALHWEHELGLAFTKNRMNYTNKFLLIPESGDYFIYSQVTFRGMTSECSEIRQAGRPNKPDSITVVITKVTDSYPEPTQLLMGTKSVCEVGSNWFQPIYLGAMFSLQEGDKLMVNVSDISLVDYTKEDKTFFGAFLL
